52 substances from patent publication EP1151102B1 can be followed below.

For test [1], the target named is chimeric leptin receptor-EPO receptor (OBR-EPOR) on 32D-OBECA cells (human; murine) (UniProt P48357). Kind of test: cell-based or functional assay.
In test [2] the target is human leptin receptor (short form), membrane-bound, from stably transfected CHO cells (human) (UniProt P48357). Briefly: 125I-Leptin competition on membranes of CHO cells expressing human leptin receptor; IC50 vs WT.
Test [3] shares this target. The test is described as above. The source holds these as a separate data set.

Like-named read-outs stand apart in the source and are kept apart here.

Take “rHu-Leptin 1-146, site 100c (WAS > NAT) (ligand)”: in test [1], the Bioactivity Rel. to WT. was 0.81 rel. to WT. In addition, the Receptor binding Rel. to WT. in test [2] was 0.45 rel. to WT.

As to “rHu-Leptin 1-146, site 8 (DDT > NDT) (ligand)”, in test [1], the Bioactivity Rel. to WT. was 1.2 rel. to WT. The Receptor binding Rel. to WT. in test [2] was 1.2 rel. to WT.

Turning to “rHu-Leptin 1-146, site 100a (PWAS > SNAT) (ligand)”, in test [1], the Bioactivity Rel. to WT. is 0.9 rel. to WT. Moreover, in test [2], the Receptor binding Rel. to WT. was 0.6 rel. to WT.

For “rHu-Leptin 1-146, site 67 (SMP > NMT) (ligand)”, the Bioactivity Rel. to WT. in test [1] was 0.52 rel. to WT. In addition, the Receptor binding Rel. to WT. in test [2] is 0.8 rel. to WT.

In the case of rHu-Leptin 1-145 (ligand), the Bio activity Rel. to WT. in test [1] is 0.14 rel. to WT. In addition, the Receptor binding Rel. to WT. in test [2] was 1.3 rel. to WT.

As for “rHu-Leptin 1-146, site 23a (DIS > NIT), erythropoietin signal peptide (ligand)”, the Bio-activity Rel. to WT. in test [1] was 0.79 rel. to WT. Besides, in test [2], the Receptor binding Rel. to WT. was 0.5 rel. to WT.

With “rHu-Leptin 1-146, site 97 (HLP > NLT) (ligand)”, the Bioactivity Rel. to WT. in test [1] is 1.1 rel. to WT.

Consider “rHu-Leptin 1-146, site 71 (RNV > NNT) (ligand)”, for which the Bioactivity Rel. to WT. in test [1] is 0.3 rel. to WT. Further, in test [2], the Receptor binding Rel. to WT. was 1.9 rel. to WT.

For the substance “rHu-Leptin 1-146, site 45 (CHP > NHT) (ligand)”, in test [1], the Bioactivity Rel. to WT. was 0.08 rel. to WT. In addition, the Receptor binding Rel. to WT. in test [2] is 0.5 rel. to WT.

For “rHu-Leptin 1-146, site 23a (DIS > NIT) (ligand)”, in test [1], the Bio-activity Rel. to WT. was 0.53 rel. to WT and the Bioactivity Rel. to WT. is 0.53 rel. to WT.

As to “rHu-Leptin 1-146, site 119 (YST > NST) (ligand)”, in test [1], the Bioactivity Rel. to WT. was 0.02 rel. to WT. Besides, in test [2], the Receptor binding Rel. to WT. was 0.8 rel. to WT.

“rHu-Leptin 1-146, site 100d (PWAS > ANAT) (ligand)”: the Bioactivity Rel. to WT. in test [1] was 0.26 rel. to WT. The Receptor binding Rel. to WT. in test [2] is 1.45 rel. to WT.

Turning to “rHu-Leptin 1-146, site 38 (GLD > NLT) (ligand)”, the Bioactivity Rel. to WT. in test [1] is 0.036 rel. to WT. For the same substance, in test [2], the Receptor binding Rel. to WT. is 0.2 rel. to WT.

As for “rHu-Leptin 1-146, site 43 (PGL > NGT) (ligand)”, the Bioactivity Rel. to WT. in test [1] is 0.014 rel. to WT. In addition, the Receptor binding Rel. to WT. in test [2] was 1.5 rel. to WT.

For “rHu-Leptin 1-146, site 100e (WAS > TAS) (ligand)”, the Bioactivity Rel. to WT. in test [1] was 0.83 rel. to WT. For the same substance, the Receptor binding Rel. to WT. in test [2] is > 1.9 rel. to WT.

Consider “rHu-Leptin 1-146, site 92 (FSK > NST) (ligand)”, for which, in test [1], the Bio-activity Rel. to WT. is 0.8 rel. to WT and the Bioactivity Rel. to WT. was 0.67 rel. to WT. The Receptor binding Rel. to WT. in test [2] is 1.6 rel. to WT.

In the case of “rHu-Leptin 1-146 expressed with the erythropoietin signal peptide and human albumin prosequence (ligand)”, in test [1], the Bio activity Rel. to WT. was 1.8 rel. to WT. Besides, in test [2], the Receptor binding Rel. to WT. is 3.5 rel. to WT.

For the substance “rHu-Leptin 1-146, site 48 (ILT > NLT) (ligand)”, in test [1], the Bio-activity Rel. to WT. was 0.53 rel. to WT and the Bioactivity Rel. to WT. was 0.53 rel. to WT. Besides, the Receptor binding Rel. to WT. in test [2] was 0.8 rel. to WT.

Consider “rHu-Leptin 1-146, site 141 (DLS > NLT) (ligand)”, for which the Bioactivity Rel. to WT. in test [1] was 1 rel. to WT. Moreover, in test [2], the Receptor binding Rel. to WT. was 0.3 rel. to WT.

Turning to “rHu-Leptin 1-146, site 116 (ASG > NST) (ligand)”, the Bioactivity Rel. to WT. in test [1] is 0.56 rel. to WT. Also, in test [2], the Receptor binding Rel. to WT. is 0.9 rel. to WT.

On to “rHu-Leptin 1-146, site 118 (GYS > NYT) (ligand)”, for which, in test [1], the Bioactivity Rel. to WT. is 3.8 rel. to WT. The Receptor binding Rel. to WT. in test [2] was 0.8 rel. to WT.

Take “rHu-Leptin 1-146 expressed with the native human erythropoietin signal peptide (ligand)”: in test [1], the Bio activity Rel. to WT. is 0.95 rel. to WT. The Receptor binding Rel. to WT. in test [2] was 1 rel. to WT.

On to “rHu-Leptin 1-146, site 117 (SGY > NGT) (ligand)”, for which the Bioactivity Rel. to WT. in test [1] was 0.01 rel. to WT. The Receptor binding Rel. to WT. in test [2] was 1.9 rel. to WT.

“rHu-Leptin 1-146, site 4 (QKV > NKV) (ligand)”: the Bioactivity Rel. to WT. in test [1] is 0.73 rel. to WT. Besides, in test [2], the Receptor binding Rel. to WT. is 1.7 rel. to WT.

With “rHu-Leptin 1-146, site 99 (PWA > NWT) (ligand)”, in test [1], the Bioactivity Rel. to WT. was 0.5 rel. to WT. Also, in test [2], the Receptor binding Rel. to WT. is 0.9 rel. to WT.

Regarding “rHu-Leptin 1-145 expressed with the erythropoietin signal peptide (ligand)”, the Bio activity Rel. to WT. in test [1] was 0.36 rel. to WT. In addition, the Receptor binding Rel. to WT. in test [2] was 0.6 rel. to WT.

“rHu-Leptin 1-146, site 73 (VIQ > NIT) (ligand)”: the Bioactivity Rel. to WT. in test [1] is 0.01 rel. to WT. Also, in test [2], the Receptor binding Rel. to WT. is 8 rel. to WT.

For “rHu-Leptin 1-146, site 33 (KQK > NQT) (ligand)”, the Bioactivity Rel. to WT. in test [1] was 0.04 rel. to WT. Further, the Receptor binding Rel. to WT. in test [2] was 0.9 rel. to WT.

For “rHu-Leptin 1-146, site 102 (SGL > NGT) (ligand)”, the Receptor binding Rel. to WT. in test [3] was 0.5 rel. to WT. Moreover, in test [1], the Bio-activity Rel. to WT. was 0.66 rel. to WT and the Bioactivity Rel. to WT. was 0.85 rel. to WT. In test [2], the Receptor binding Rel. to WT. was 0.6 rel. to WT.

As for “rHu-Leptin 1-146, site 115 (EAS > NAT) (ligand)”, the Bioactivity Rel. to WT. in test [1] was 0.006 rel. to WT. The Receptor binding Rel. to WT. in test [2] was 0.9 rel. to WT.

“rHu-Leptin 1-146, site 77 (SND > NNT), expressed with the erythropoietin signal peptide (ligand)”: the Bioactivity Rel. to WT. in test [1] is < 0.02 rel. to WT. In test [2], the Receptor binding Rel. to WT. is 2.2 rel. to WT.

For “rHu-Leptin 1-146, site 46 (HPI > NPT) (ligand)”, the Bioactivity Rel. to WT. in test [1] was 0.27 rel. to WT. In test [2], the Receptor binding Rel. to WT. was 0.11 rel. to WT.

As to “rHu-Leptin 1-146, site 101 (ASG > NST) (ligand)”, in test [1], the Bioactivity Rel. to WT. was 0.33 rel. to WT. For the same substance, the Receptor binding Rel. to WT. in test [2] was 0.7 rel. to WT.

On to “rHu-Leptin 1-146, site 44 (GLH > NLT) (ligand)”, for which the Bioactivity Rel. to WT. in test [1] was 0.78 rel. to WT. For the same substance, the Receptor binding Rel. to WT. in test [2] is 2 rel. to WT.

Take “rHu-Leptin 1-146, site 93 (SKS > NKT) (ligand)”: in test [1], the Bioactivity Rel. to WT. is 1.1 rel. to WT.

For “rHu-Leptin 1-146, site 47 (PIL > NIT) (ligand)”, in test [1], the Bio-activity Rel. to WT. is 0.84 rel. to WT and the Bioactivity Rel. to WT. was 0.84 rel. to WT. Also, the Receptor binding Rel. to WT. in test [2] is 0.66 rel. to WT.

“rHu-Leptin 1-146, site 29 (SVS > NVT) (ligand)”: the Bioactivity Rel. to WT. in test [1] was 0.5 rel. to WT. For the same substance, in test [2], the Receptor binding Rel. to WT. is 0.6 rel. to WT.

For “rHu-Leptin 1-146, site 37 (TGL > NGT) (ligand)”, in test [1], the Bioactivity Rel. to WT. is 0.043 rel. to WT. In addition, the Receptor binding Rel. to WT. in test [2] was 0.4 rel. to WT.

Turning to “rHu-Leptin 1-146, site 100b (WAS > NAS) (ligand)”, the Bioactivity Rel. to WT. in test [1] was 1.46 rel. to WT. In test [2], the Receptor binding Rel. to WT. was 0.7 rel. to WT.

“rHu-Leptin 1-146, site 72 (NVI > NVT) (ligand)”: the Bioactivity Rel. to WT. in test [1] was 0.26 rel. to WT. Moreover, in test [2], the Receptor binding Rel. to WT. was 1.7 rel. to WT.

As to “rHu-Leptin 1-146, site 68 (MPS > NAT) (ligand)”, the Bioactivity Rel. to WT. in test [1] was 0.036 rel. to WT. Moreover, the Receptor binding Rel. to WT. in test [2] is 0.8 rel. to WT.

As for “rHu-Leptin 1-146, site 5 (KVQ > NVT) (ligand)”, in test [1], the Bioactivity Rel. to WT. is 0.05 rel. to WT. Further, in test [2], the Receptor binding Rel. to WT. is 1.7 rel. to WT.

“rHu-Leptin 1-146, site 35 (KVT > NVT) (ligand)”: the Bioactivity Rel. to WT. in test [1] was 0.13 rel. to WT. Further, the Receptor binding Rel. to WT. in test [2] is 0.5 rel. to WT.

“rHu-Leptin 1-146, site 70 (SRN > NRT) (ligand)”: in test [1], the Bioactivity Rel. to WT. was 1 rel. to WT. In addition, the Receptor binding Rel. to WT. in test [2] was 1 rel. to WT.

Turning to “rHu-Leptin 1-146, site 27 (TQS > NQT) (ligand)”, the Bioactivity Rel. to WT. in test [1] is 0.13 rel. to WT. Moreover, the Receptor binding Rel. to WT. in test [2] was 0.7 rel. to WT.

For the substance “rHu-Leptin 1-146, site 69 (PSR > NST) (ligand)”, in test [1], the Bio-activity Rel. to WT. was 1.1 rel. to WT and the Bioactivity Rel. to WT. was 1.1 rel. to WT. Further, the Receptor binding Rel. to WT. in test [2] was 0.6 rel. to WT.

In the case of “rHu-Leptin 1-146, site 26 (HTQ > NTT) (ligand)”, the Bioactivity Rel. to WT. in test [1] is 0.01 rel. to WT. In addition, in test [2], the Receptor binding Rel. to WT. is 1.5 rel. to WT.

“rHu-Leptin 1-146, site 103 (GLE > NLT) (ligand)”: the Bioactivity Rel. to WT. in test [1] was 0.73 rel. to WT. Also, the Receptor binding Rel. to WT. in test [2] is 1 rel. to WT.

As for “rHu-Leptin 1-146, site 120 (STE > NTT) (ligand)”, the Bioactivity Rel. to WT. in test [1] was 0.01 rel. to WT. The Receptor binding Rel. to WT. in test [2] is 0.7 rel. to WT.

With “rHu-Leptin 1-146, site 25 (SHT > NHT) (ligand)”, the Bioactivity Rel. to WT. in test [1] is 0.02 rel. to WT. For the same substance, the Receptor binding Rel. to WT. in test [2] is 0.4 rel. to WT.

As for “rHu-Leptin 1-146, site 7 (QDD > NDT) (ligand)”, the Bioactivity Rel. to WT. in test [1] was 0.04 rel. to WT. The Receptor binding Rel. to WT. in test [2] is 1.25 rel. to WT.

Consider rHu-Leptin 1-146 (wild type) (ligand), for which, in test [1], the Bio activity Rel. to WT. was 1 rel. to WT and the Bioactivity Rel. to WT. was 1 rel. to WT. Further, the Receptor binding Rel. to WT. in test [2] is 1 rel. to WT.
